Assay results: patent US11065314B2, “Peptides and combination of peptides for use in immunotherapy against breast cancer and other cancers” (Immatics Biotechnologies GmbH, priority 2015, dated 2021)
Square brackets hold non-standard residues; d marks the D form. Ends that are not written are not given here. pT = C[C@@H](OP(=O)(O)O)[C@H](N)C(=O)O

Each sequence was assayed against HLA-A*02:01 (Homo sapiens, UniProt P04439, D140Y/D185E/D98H/E176V/E277Q/G131W/G231S/I119V/I121R/I166T/I218V/L300P/L318F/N151K/N90K/P208A/P217A/Q86G/Q94H/R138H/R169H/T345S) (assay: MHC binding assay: UV-ligand exchange with β2m ELISA). Settings: binding to HLA-A*02:01, UV-ligand exchange.
Text: Candidate peptides for T cell based therapies according to the present invention were further tested for their MHC binding capacity (affinity). The individual peptide-MHC complexes were produced by UV-ligand exchange, where a UV-sensitive peptide is cleaved upon UV-irradiation, and exchanged with the peptide of interest as analyzed. Only peptide candidates that can effectively bind and stabilize the peptide-receptive MHC molecules prevent dissociation of the MHC complexes. To determine the yield of the exchange reaction, an ELISA was performed based on the detection of the light chain (β2m) of stabilized MHC complexes. The assay was performed as generally described in Rodenko et al. (Rodenko et al., 2006).
96 well MAXISorp plates (NUNC) were coated over night with 2 ug/ml streptavidin in PBS at room temperature, washed 4× and blocked for 1 h at 37° C. in 2% BSA containing blocking buffer. Refolded HLA-A*02:01/MLA-001 monomers served as standards, covering the range of 15-500 ng/ml. Peptide-MHC monomers of the UV-exchange reaction were diluted 100-fold in blocking buffer. Samples were incubated for 1 h at 37° C., washed four times, incubated with 2 ug/ml HRP conjugated anti-β2m for 1 h at 37° C., washed again and detected with TMB solution that is stopped with […]. Absorption was measured at 450 nm. Candidate peptides that show a high exchange yield (preferably higher than 50%, most preferred higher than 75%) are generally preferred for a generation and production of antibodies or fragments thereof, and/or T cell receptors or fragments thereof, as they show sufficient avidity to the MHC molecules and prevent dissociation of the MHC complexes.

Peptide Exchange (peptide exchange yield)	Sequence
“+++” (≥50 = +++)	ALEAUQLYL (ALEA[pT]QLYL; listed as Homo sapiens) [SEQ ID NO: 29, HLA-A*02 peptide, source gene DEPDC4; U = phospho-threonine]
“++” (≥20% = ++)	ALEEQLHQV (listed as Homo sapiens) [SEQ ID NO: 19, HLA-A*02 peptide, source genes KRT25, KRT28, KRT27]
“++” (≥20% = ++)	ALNPVIYTV (listed as Homo sapiens) [SEQ ID NO: 5, HLA-A*02 peptide, source gene DRD4]
“+++” (≥50 = +++)	ALTALQNYL (listed as Homo sapiens) [SEQ ID NO: 6, HLA-A*02 peptide, source gene TFAP2B]
“++++” (≥75% = ++++)	FIIPTVATA (listed as Homo sapiens) [SEQ ID NO: 7, HLA-A*02 peptide, source gene ABCC11]
“+++” (≥50 = +++)	FLDEEVKLI (listed as Homo sapiens) [SEQ ID NO: 43, HLA-A*02 peptide, source gene FTL]
“++” (≥20% = ++)	FLSSEAANV (listed as Homo sapiens) [SEQ ID NO: 30, HLA-A*02 peptide, source gene TNFAIP2]
“++++” (≥75% = ++++)	FLVEHVLTL (listed as Homo sapiens) [SEQ ID NO: 42, HLA-A*02 peptide, source gene printed 5LC39A6]
“+++” (≥50 = +++)	FMSKLVPAI (listed as Homo sapiens) [SEQ ID NO: 9, HLA-A*02 peptide, source gene TPRG1]
“+++” (≥50 = +++)	FSFPVSVGV (listed as Homo sapiens) [SEQ ID NO: 20, HLA-A*02 peptide, source gene DUSP4]
“+++” (≥50 = +++)	GLHSLPPEV (listed as Homo sapiens) [SEQ ID NO: 10, HLA-A*02 peptide, source gene LRRC8E]
“++” (≥20% = ++)	GLLPTSVSPRV (listed as Homo sapiens) [SEQ ID NO: 11, HLA-A*02 peptide, source gene SCUBE2]
“++” (≥20% = ++)	GLSYIYNTV (listed as Homo sapiens) [SEQ ID NO: 31, HLA-A*02 peptide, source gene COG6]
“+++” (≥50 = +++)	GLVATLQSL (listed as Homo sapiens) [SEQ ID NO: 32, HLA-A*02 peptide, source gene IFI6]
“++++” (≥75% = ++++)	GLVQSLTSI (listed as Homo sapiens) [SEQ ID NO: 8, HLA-A*02 peptide, source gene ABCC11]
“++” (≥20% = ++)	ILFDVVVFL (listed as Homo sapiens) [SEQ ID NO: 25, HLA-A*02 peptide, source gene C4orf3]
“++” (≥20% = ++)	ILTELPPGV (listed as Homo sapiens) [SEQ ID NO: 33, HLA-A*02 peptide, source gene ZNF407]
“++” (≥20% = ++)	KAFPFYNTV (listed as Homo sapiens) [SEQ ID NO: 12, HLA-A*02 peptide, source gene NAIP]
“++++” (≥75% = ++++)	KLLDMELEM (listed as Homo sapiens) [SEQ ID NO: 39, HLA-A*02 peptide, source gene FAH]
“++” (≥20% = ++)	KLYEGIPVL (listed as Homo sapiens) [SEQ ID NO: 13, HLA-A*02 peptide, source gene NEK10]
“+++” (≥50 = +++)	KQLELELEV (listed as Homo sapiens) [SEQ ID NO: 14, HLA-A*02 peptide, source gene MUC6]
